Test results from US20100087363A1 (YEDA RESEARCH AND DEVELOPMENT, published 2010).

Target: T1, LDL (low density lipoprotein; Biomedical Technologies, Inc) (UniProt P04114 28-4563)
T1 construct: LDL is a lipoprotein particle (avg. mass 2.5x10^6 Da) of lipid and protein, not a pure protein
Assay: size exclusion chromatography (Superose 6) of a pre-incubated LDL + sLDLR mix (7 micromolar each); ratio of bound and free sLDLR peaks by sLDLR ELISA, assuming 5-fold dilution
Method: Therefore, we employed another method for testing the binding of sLDLR to LDL. For this purpose, we incubated for 1 h at 37° C. a solution of LDL (Biomedical technologies, Inc, Ma, USA) and r-hsLDLR of Example 5 at a final concentration of 7 micromolar each in PBS plus 10 micromolar Calcium Chloride (PBS+). An aliquot of 0.1 ml was subjected to size exclusion chromatography on a Superose 6 HR 10/30 column (GE Healthcare Life Sciences Cat. No 17-5172-01). The column was eluted with PBS+ at a flow rate of 0.4 ml/min and fractions of 0.5 ml were collected. The concentration of r-hsLDLR was determined by a specific ELISA as follows:
Mab #28 anti-human sLDLR (5 microgram/ml in PBS; corresponding to Mab from hybridoma clone 28 deposited at the CNCM under No. 1-2391-U.S. Pat. No. 6,849,720) was used for coating of 96-well ELISA plates at 0.1 ml/well overnight at room temperature. The plates were then washed ×3 with PBS containing 0.05% Tween-20 and then blocked by 0.3 ml blocking buffer (1% bovine serum albumin, 5% sucrose, 0.05% sodium azide in PBS). The plates were then washed 3× with PBS. […] The plated were then washed 3× with reagent diluent, a substrate solution (0.1 ml TMB/E, Chemicon) is added to each well and the plates were either read within 5 min at 630 nm or stopped with H₂SO₄ (2 N 0.05 ml) and read at 450 nm.

B1: recombinant human soluble LDL receptor, amino acid residues 25-352 of the LDLR precursor, expressed in CHO cells (receptor)
chain: not shown
modifications: N-glycosylated at Asn 272 of the LDLR precursor
notes: range 25-352; Produced in DHFR-deficient CHO cells (InterPharm Laboratories); also called sLDLR; r-hsLDLR
Kd: ~10 nM
